Measured values published in patent publication US20190300618A1 (Merck Sharp & Dohme, published 2019).
Numbering of substitutions follows the chain as printed. Values belong to the molecule of their own block, whether it stands above or below them.

Key:
[1] = target: human CD27 (A59T), expressed on cells (human) (UniProt P26842); assay: flow cytometry, transiently transfected CHO-K1; empty vector: GM FITC 212
[2] = target: human CD27 (wild type), expressed on cells (human) (UniProt P26842); assay: as above
[3] = target: human CD27 (A59T), expressed on cells (human) (UniProt P26842); assay: flow cytometry, transiently transfected CHO-K1; empty vector: + 5.32
[4] = target: human CD27 (wild type), expressed on cells (human) (UniProt P26842); assay: as above
[5] = target: T1, human CD27 (wild type), expressed on cells (human, UniProt P26842 21-260); assay: flow cytometry on primary T cells
T1 construct: on transfected CHO-K1 / CHOK1 cells, transfected HEK293FT reporter cells or primary human T cells; also called hCD27; HsCD27
Protocol: Labeled cells were washed by re-suspending them in 150 ul of staining buffer (SB) followed by centrifugation at 300 g for 5 minutes. Cells were then resuspended in 100 ul of SB containing primary anti-CD27 antibodies at various concentrations, incubated in the dark at 4° C. for 30 minutes, followed by washing and centrifugation steps as previously described. […] Cells were incubated for 30 minutes at 4° C. in the dark, followed by washing and centrifugation steps. Next, cells were stained with a cocktail of phenotypic antibodies for surface markers (CD3, CD4, CD8, CD11b) and incubated for 30 minutes at 4° C. in the dark, followed by washing and centrifugation steps. […] Samples were acquired in a LSR-Fortessa flow cytometer (BD Biosciences) using the high throughput sampler and data analyzed by FlowJo software (Tree Star Inc).

GM FITC [1]: 1060
GM FITC [2]: 1280
cells in the + gate [3]: 52.5%
cells in the + gate [4]: 58.9%
Molecule: Fc-mCD70 (Fc fusion)

EC50 above that of 131AVH6VL6-hIgG1 [5]: ≤ 10%
B1: Humanized CD27 131A VH6/VL7-hIgG1 (antibody, V domains shown)
VH: EIQLVQSGAEVKKPGASVKVSCKASGYTFTNYGMNWVKQAPGQGLKWMGWINTNTGEPTYAEEFKGRFTFTLDTSISTAYMELSSLRSEDTAVYYCAREGDAMDYWGQGTTVTVSS
VL: EIVLTQSPATLSLSPGERATLSCSASSSVSYMHWYQQKPGQAPKRWIYDTSKLASGVPARFSGSGSGTSYSLTISSLEPEDFATYYCQQWNSYPFTFGQGTKLEIK
notes: human IgG1 constant region; also called hCD27.131A VH6VL7 hulgG1

EC50 above that of 131AVH6VL6-hIgG1 [5]: ≤ 10%
B2: Humanized CD27 131A VH9/VL9-hIgG1 (antibody, V domains shown)
VH: B1 VH with K38R, I76A
VL: DIQLTQSPSTLSASVGDRVTITCSASSSVSYMHWYQQKPGKAPKRWIYDTSKLASGVPARFSGSGSGTDYTLTISSLQPEDFATYYCQQWNSYPFTFGQGTKLEIK
notes: human IgG1 constant region; also called hCD27.131A VH9VL9 hulgG1

EC50 above that of 131AVH6VL6-hIgG1 [5]: ≤ 10%
B3: Humanized CD27 131A VH7/VL7-hIgG1 (antibody, V domains shown)
VH: B1 VH with V20I, I76A, S77T, M81L, L83I
VL: B1 VL
notes: human IgG1 constant region; also called hCD27.131A VH7VL7 hulgG1

EC50 above that of 131AVH6VL6-hIgG1 [5]: ≤ 10%
B4: Humanized CD27 131A VH8/VL6-hIgG1 (antibody, V domains shown)
VH: B1 VH with S88N
VL: B1 VL with S69D, T84V
notes: human IgG1 constant region; also called hCD27.131A VH8VL6 hulgG1

EC50 above that of 131AVH6VL6-hIgG1 [5]: ≤ 10%
B5: Humanized CD27 131A VH8/VL7-hIgG1 (antibody, V domains shown)
VH: B1 VH with S88N
VL: B1 VL
notes: human IgG1 constant region; also called hCD27.131A VH8VL7 hulgG1

EC50 above that of 131AVH6VL6-hIgG1 [5]: ≤ 10%
B6: Humanized CD27 131A VH6/VL8-hIgG1 (antibody, V domains shown)
VH: B1 VH
VL: B1 VL with L13A, A19V, S69D, L77M, T84V
notes: human IgG1 constant region; also called hCD27.131A VH6VL8 hulgG1

EC50 above that of 131AVH6VL6-hIgG1 [5]: ≤ 10%
B7: Humanized CD27 131A VH7/VL8-hIgG1 (antibody, V domains shown)
VH: B1 VH with V20I, I76A, S77T, M81L, L83I
VL: B1 VL with L13A, A19V, S69D, L77M, T84V
notes: human IgG1 constant region; also called hCD27.131A VH7VL8 hulgG1

EC50 above that of 131AVH6VL6-hIgG1 [5]: ≤ 10%
B8: Humanized CD27 131A VH8/VL8-hIgG1 (antibody, V domains shown)
VH: B1 VH with S88N
VL: B1 VL with L13A, A19V, S69D, L77M, T84V
notes: human IgG1 constant region; also called hCD27.131A VH8VL8 hulgG1

EC50 above that of 131AVH6VL6-hIgG1 [5]: ≤ 10%
B9: Humanized CD27 131A VH7/VL6-hIgG1 (antibody, V domains shown)
VH: B1 VH with V20I, I76A, S77T, M81L, L83I
VL: B1 VL with S69D, T84V
notes: human IgG1 constant region; also called hCD27.131A VH7VL6 hulgG1
